Reference: article doi:10.1101/2020.05.13.092544 (bioRxiv, 2020)

Biological target: the molecule itself
Assay: SDS-PAGE

B1: His6-tagged periplasmic copper binding loop (sensor domain) of CopS, CopS(34-151) (domain or fragment, Pseudomonas aeruginosa, UniProt Q9I033 34-151, looked up)
chain: FSRAIDEHFVELDHMAMSAKLAVFRDELRGLGSEQQMRRREAELLRELARHPDLGLRLNGPDGNLWFERLPQPAHPGLPANRELGAPLEPGNDASPRLTVILDISHHQHFLQRMRQLI
binding result: binds
